The record followed here is US20240352121A1, “LAIR-1 AGONISTIC ANTIBODIES AND METHODS OF USE THEREOF” (NEXTCURE, INC., priority 2023, published 2024).

The test system of one experiment is AML patient cells. As to the kind of experiment: Ex vivo depleting assay, AML patient blood leukocytes. In kind it is cell-based, human. The protocol:
Whole blood from AML-diagnosed donors was RBC-depleted using StemCell RBC depletion kit following the manufacturer's instructions. Leukocytes were re-suspended in complete RPMI media containing 3 μg/mL of soluble mAb, then plated in 96-well round-bottom plates for 48 hours at 37° C. Cell death was analyzed by AnnexinV and Fixable Live-Dead staining following the manufacturer's instructions, quantified by flow cytometry. RBC depletion StemCell Ref #18170. Isotype=FC-G1 BioXcell Ref #BE0096. Live-Dead Stain Invitrogen Cat #L34966. AnnexinV-AF647 Biolegend Cat #640943.
Fresh whole blood was RBC-depleted using the EasySep™ RBC Depletion Reagent (StemCell, Vancouver, BC) following the manufacturer's protocol. Alternatively, frozen PBMCs were thawed in pre-warmed cRPMI media. Cell number was determined by VI-Cell XR cell counter. 2e5 cells per well were plated into 96-well plates lacking or containing 50 μg/mL pre-coated human Collagen I (StemCell, Vancouver, BC) in 200 μL of cRPMI containing 10 μg/mL of soluble LAIR-1 mAb or isotype control antibody (NP782 (NextCure, Beltsville, MD) or InVivoMAb recombinant human IgG1 Fc (BioXcell, Lebanon, NH)). Plates were centrifuged at 100×g for 2 minutes, then incubated for 20 hours at 37° C. in a TC incubator. At the end of incubation period, plates were centrifuged at 500×g for 4 min. […]

The next experiment concerns AML PBMCs. As to the kind of experiment: ADCC assay, AML patient PBMCs with healthy donor NK cells. The class given is cell-based, human. To be noted: 3:1 Target:Effector ratio, 4 hours. As for the experimental part:
ADCC was measured using the CytoTox 96® Non-Radioactive Cytotoxicity Assay (Promega) following the manufacturer's instructions. Briefly, AML patient PBMCs were mixed with healthy donor NK cells at a 3:1 Target:Effector ratio in complete RPMI containing the indicated concentration of soluble h11B3 or Fc-G1 isotype control. Mixed cells were incubated for 4 hours at 37 deg C. Test wells were run in quadruplicate. AML PBMCs-Donor #200018616, newly diagnosed/untreated. NK cells-Healthy Donor #83, isolated from PBMCs via StemCell Kit #17955 following manufacturer's instructions. CytoTox 96® Non-Radioactive Cytotoxicity Assay Promega Cat #G1780. % Cytotoxicity quantified by target cell LDH release. % Cytotoxicity=((Test Well LDH Release−Effector Cell Spontaneous Release−Target Cell Spontaneous Release)/(Target Cell Max Release−Target Cell Spontaneous Release))*100. Target Cells=AML PBMCs Donor #200018616; Effector Cells=NK cells isolated from healthy Donor #83 PBMCs. […] ADCC was measured using the Toxilight Bioluminescent Cytotoxicity Assay (Lonza)) following the manufacturer's instructions. […] Toxilight Bioluminescent Cytotoxicity Assay kit Lonza Cat #LT17-217. % Cytotoxicity quantified by target cell adenylate kinase release; ADCC calculated as described above. […]

The test system of another experiment is SoC-resistant AML. As to the kind of experiment: PDX model with BM from a VEN/AZA-resistant patient. Details: species or system NSG-SGM3 mice. To be noted: mouse, in vivo. As for the experimental part: Ex vivo killing of VEN/AZA-treated AML patient leukemic cells (FIG. 7A) or T cells or NK cells (FIG. 7B). Values normalized to vehicle control. Lines represent linear regression of NC525 concentration versus normalized cell killing. […] FIGS. 7D and 7E show in vivo leukemic growth as measured by whole-body luminescence of MV4-11-luciferase cells (FIG. 7D) or survival (FIG. 7E) of CDX mice treated with 10 mg/kg isotype control (gray) or NC525 (red) or 100 mg/kg VEN (pink) or 0.5 mg/kg AZA (blue) or combination therapy (green or yellow, respectively). BLoD, below limit of detection. n=9 mice per group. P values determined by 2-way ANOVA or log-rank (Mantel-Cox) test, respectively. FIGS. 7F and 7G show leukemic growth in the blood (FIG. 7F) and in the spleen and BM (FIG. 7G) at week 8 after transplant of AML PDX mice treated with vehicle (gray), VEN/AZA (blue), NC525 (red), or VEN/AZA plus NC525 (green). n=5-10 mice per group. AML cells in spleen and BM compared from 4-5 mice per group. Data are shown as the mean±SEM. P values determined by 2-way ANOVA or 1-way ANOVA with multiple comparisons.
Newborn (3-5 day from birth) NSG-SGM3 pups were sub-lethally (200 cGy) irradiated. […] Leukemia progression in recipient mice was measured by flow cytometry by quantifying the percent of human CD33^+ human CD45^+ cells in peripheral blood at weeks 4, 6, and 10 weeks post-transplant.

B1: LAIR-1 mAb: humanized agonist anti-LAIR-1 mAb, IgG1 backbone; h11B3 VL-2 (SEQ ID NO: 16), h11B3 VH-3 (SEQ ID NO: 27) (antibody, V domains shown)
VH: EVQLVESGGGLVQPGGSLKLSCAASGFTFNTNAMYWVRQAPGKGLEWVGRIRSKSSNYATYYAASVKGRFTISRDDSKNTLYLQMNSLKTEDTAVYYCVRGGSGFFAYWGQGTLVTVSS
VL: DIQMTQSPSSLSASLGDRVTITCKASEDIYIRLAWYQQKPGKAPRLLISTATSLETGVPSRFSGSGSGTDYTFTISSLQPEDIATYYCQQYWSTPYTFGGGTRLEIK
modifications: IgG1 constant regions; Synthetic: h11B3 VH-3; Synthetic: h11B3 VL-2
For B1, in the experiment with AML patient cells (3 μg/mL soluble mAb, 48 hours), the AML cell death entry is recorded as “induces AML cell death”. Moreover, the “cell death of total AML patient cells or CD45Low SSCLow blasts” value with AML patient cells (10 μg/mL, plate-coated collagen) was “significant cell death”. Moreover, the ADCC result in the experiment with AML PBMCs was “induces AML cell death through antibody dependent cytotoxicity (ADCC)”. For the same molecule, the “AML disease (circulating blast cell burden, AML cells in spleen and BM)” value in the experiment with SoC-resistant AML was “significantly reduced”.
